Laboratory results from publication PMC10847046.

Molecular target: M66/StcE (Yersinia entomophaga (endogenous in the ΔLC derivative of MH96))
Test: cryo-EM structure

M66/StcE (enzyme)
stoichiometry N: 4
